Measured values published in article PMC8204860.

Molecular target: TRAPPIII complex, P46944;P38334;Q03337;P36149;Q03784;Q03630;Q99394
Assay: in vivo anchor-away assay (colocalization of Trs85-mNeonGreen with mitochondrially anchored Rab, fluorescence microscopy)
Conditions: parent: est. 0.55; read off a plot

Substance | other: Mander's Overlap Coefficient
chimeric construct containing the NBD of Rab11/Ypt31 and the HVD of Rab1/Ypt1, mitochondrially anchored K194A; Q196A; S197A | 0.28
chimeric construct containing the NBD of Rab11/Ypt31 and the HVD of Rab1/Ypt1, mitochondrially anchored V191A; N192A; L193A | 0.3
chimeric construct containing the NBD of Rab11/Ypt31 and the HVD of Rab1/Ypt1, mitochondrially anchored K184A; K185A; E186A | 0.58
chimeric construct containing the NBD of Rab11/Ypt31 and the HVD of Rab1/Ypt1, mitochondrially anchored T181A; T182A; Q183A | 0.54
chimeric construct containing the NBD of Rab11/Ypt31 and the HVD of Rab1/Ypt1, mitochondrially anchored L198A; T199A; N200A; T201A | 0.21
chimeric construct containing the NBD of Rab11/Ypt31 and the HVD of Rab1/Ypt1, mitochondrially anchored D187A; K188A; N190A | 0.68
